The source of these data is article PMC5389579.

The data set concerns the target SSRP1 (Flag) (human, UniProt Q08945 1-709). The data set can be described thus: EMSA.

Chain of SSRP1 (Flag) (Q08945 whole entry): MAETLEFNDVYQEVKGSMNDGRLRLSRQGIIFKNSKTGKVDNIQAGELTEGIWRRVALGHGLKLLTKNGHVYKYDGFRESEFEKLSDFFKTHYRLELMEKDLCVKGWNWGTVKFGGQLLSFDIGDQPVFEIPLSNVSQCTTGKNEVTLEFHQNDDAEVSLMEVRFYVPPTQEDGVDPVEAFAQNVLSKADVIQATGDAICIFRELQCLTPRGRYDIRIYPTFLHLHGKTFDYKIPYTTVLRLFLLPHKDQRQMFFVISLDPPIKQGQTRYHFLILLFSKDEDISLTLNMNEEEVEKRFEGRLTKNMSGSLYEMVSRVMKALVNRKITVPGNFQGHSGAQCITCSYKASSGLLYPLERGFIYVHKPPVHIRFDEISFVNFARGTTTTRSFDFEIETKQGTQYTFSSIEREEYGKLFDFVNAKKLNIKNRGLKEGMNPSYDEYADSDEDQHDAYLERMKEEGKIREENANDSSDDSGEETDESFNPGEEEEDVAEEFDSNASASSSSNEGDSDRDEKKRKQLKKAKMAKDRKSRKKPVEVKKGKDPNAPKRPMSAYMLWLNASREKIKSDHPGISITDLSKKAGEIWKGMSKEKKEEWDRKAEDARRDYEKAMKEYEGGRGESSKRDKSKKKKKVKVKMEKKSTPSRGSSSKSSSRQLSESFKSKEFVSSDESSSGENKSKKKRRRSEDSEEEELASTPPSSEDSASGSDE

B1: AC probe (dsDNA)
DNA 1: ACACACACACACACACACACACACACACACACACAC
DNA 2: GTGTGTGTGTGTGTGTGTGTGTGTGTGTGTGTGTGT
In the case of B1, the binding result is given as “binds”.
